Data reported in patent US20260132197A1 (NANJING LEGEND BIOTECH, published 2026).

How the values were obtained:
[1] = biological target: T1, human CD47 on cells (SHP-77 tumor cells, human red blood cells, CCRF-CEM cells, human CD47 CHO-K1 stable cell … (human, UniProt Q08722 19-323)); assay: flow cytometry on SHP-77 cells
T1 construct: whole, on cells; also called RBC

[2] = biological target: T1, human CD47 on cells (SHP-77 tumor …); assay: flow cytometry on human RBCs;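 note: antibody binding measured by flow cytometry as geometric mean fluorescence intensity over a range of antibody concentrations, with EC50 and maximum taken from a sigmoidal dose-response fit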
[3] = biological target: T1, human CD47 on cells (SHP-77 tumor …); assay: cell-based or functional assay
[4] = biological target: T2, Human CD47-C33G (human, UniProt Q08722 19-135); assay: SPR, IgG captured, CD47 in flow; exp 4
T2 construct: also called CD47 mutein with C33G mutation

[5] = biological target: T3, wild type human CD47 (Acro Biosystems, cat. no. CD7-H5227) (human, UniProt Q08722 19-139); assay: SPR, IgG captured, CD47 in flow; exp 4
T3 construct: Bought protein used as SPR analyte; also called Human CD47 wt; wild-type CD47

[6] = biological target: T2, Human CD47-C33G; assay: SPR, IgG captured, CD47 in flow; exp 1;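 note: biacore T200 SPR using IgG from supernatants of transfected HEK293 cells, rate constants fitted to association and dissociation curves, Kd derived from koff over kon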
[7] = biological target: T3, wild type human CD47 (Acro Biosystems, …); assay: SPR, IgG captured, CD47 in flow; exp 1;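 note: biacore T200 SPR using IgG from supernatants of transfected HEK293 cells, rate constants fitted to association and dissociation curves, Kd derived from koff over kon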
[8] = biological target: T2, Human CD47-C33G; assay: SPR, IgG captured, CD47 in flow; exp 4; remark: listed apart in the source
[9] = biological target: T3, wild type human CD47 (Acro Biosystems, …); assay: SPR, IgG captured, CD47 in flow; exp 4; remark: listed apart in the source

Row | EC50 [1] [nM] | Fitted Maximal MFI [1] [MFI] | EC50 [2] [nM] | Fitted Maximal MFI [2] [MFI] | Kd [6] [nM] | koff [6] [s⁻¹] | kon [6] [M⁻¹ s⁻¹] | Kd [7] [nM] | koff [7] [s⁻¹] | kon [7] [M⁻¹ s⁻¹] | Kd [8] [nM] | koff [8] [s⁻¹] | kon [8] [M⁻¹ s⁻¹] | Kd [9] [nM] | koff [9] [s⁻¹] | kon [9] [M⁻¹ s⁻¹] | Binder | further results
1 | 27.5 | 24100 | 23.6 | 16100 |  |  |  |  |  |  |  |  |  |  |  |  | 108VH10.Mp / 108VL10.Me (antibody, V domains shown, 4D5-framework series; constant regions not restated for this series; also called VH10.Mp VL10.Me) VH: EVQLVESGGGLVQPGGSLRLSCAASGFTFSHHWIHWVRQAPGKGLEWVAMIDASDSETRLVDSFKGRFTISADTSKNTAYLQMNSLRAEDTAVYYCSRLGRYYFDYWGQGTLVTVSS VL: DIQMTQSPSSLSASVGDRVTITCRASQSISSYLNWYQQKPGKAPKLLIYGASSRYSGVPSRFSGSRSGTDFTLTISSLQPEDFATYYCGESYGHLYTFGQGTKVEIK | CCRF-CEM phagocytosis EC50 [3]: 1.2 nM; CCRF-CEM phagocytosis, Phagocytosis (%) [3]: 47.1%; Kd [4]: 170 nM; koff [4]: 0.012 s⁻¹; kon [4]: 72000 M⁻¹ s⁻¹; Kd [5]: 15 nM; koff [5]: 0.0039 s⁻¹; kon [5]: 250000 M⁻¹ s⁻¹
2 | 9.8 | 38700 | 4 | 29200 |  |  |  |  |  |  | 31 | 0.0067 | 220000 | 5.7 | 0.003 | 520000 | 108VH5.M24 / 108VL1.M5 (antibody, human IgG4 S228P, kappa, V domains shown, Full-length IgG4 (S228P), kappa; also called VH5.M24 VL1.M5) VH: EVQLVQSGAEVKKPGASVKVSCKASGYTFTHHWMHWVRQAPGQGLEWMGMIDASDLETRYAQKFQGRVTMTRDTSTSTVYMELSSLRSEDTAVYYCARLGRYYFDYWGQGTLVTVSS VL: EIVLTQSPATLSLSPGERATLSCRASQSVSSYLAWYQQKPGQAPRLLIYGASNRATGIPARFSGSGSGTDFTLTISSLEPEDFAVYYCGESYGHLYTFGGGTKVEIKR | 
3 | 7.1 | 39600 | 4 | 35500 |  |  |  |  |  |  | 33 | 0.0063 | 190000 | 6.2 | 0.0028 | 450000 | 108VH5.M25 / 108VL1.M5 (antibody, human IgG4 S228P, kappa, V domains shown, Full-length IgG4 (S228P), kappa; also called VH5.M25 VL1.M5) VH: EVQLVQSGAEVKKPGASVKVSCKASGYTFTHHWMHWVRQAPGQGLEWMGMIDASDRETRYAQKFQGRVTMTRDTSTSTVYMELSSLRSEDTAVYYCARLGRYYFDYWGQGTLVTVSS VL: EIVLTQSPATLSLSPGERATLSCRASQSVSSYLAWYQQKPGQAPRLLIYGASNRATGIPARFSGSGSGTDFTLTISSLEPEDFAVYYCGESYGHLYTFGGGTKVEIKR | 

The remaining lines, values behind:

Row | Binder | EC50 [1] [nM] | Fitted Maximal MFI [1] [MFI] | EC50 [2] [nM] | Fitted Maximal MFI [2] [MFI] | Kd [6] [nM] | koff [6] [s⁻¹] | kon [6] [M⁻¹ s⁻¹] | Kd [7] [nM] | koff [7] [s⁻¹] | kon [7] [M⁻¹ s⁻¹] | Kd [8] [nM] | koff [8] [s⁻¹] | kon [8] [M⁻¹ s⁻¹] | Kd [9] [nM] | koff [9] [s⁻¹] | kon [9] [M⁻¹ s⁻¹] | further results
4 | 108VH5.M5 / 108VL1.M5 (antibody, human IgG4 S228P, kappa, V domains shown, Full-length IgG4 (S228P), kappa; also called VH5.M5 VL1.M5) VH: EVQLVQSGAEVKKPGASVKVSCKASGYTFTHHWIHWVRQAPGQGLEWMGMIDASDSETRLSQKFKDRVTMTRDTSTSTVYMELSSLRSEDTAVYYCARLGRYYFDYWGQGTLVTVSS VL: EIVLTQSPATLSLSPGERATLSCRASQSVSSYLAWYQQKPGQAPRLLIYGASNRATGIPARFSGSGSGTDFTLTISSLEPEDFAVYYCGESYGHLYTFGGGTKVEIKR |  |  |  |  | 6.2 | 0.0021 | 330000 | 1.3 | 0.00096 | 720000 |  |  |  |  |  |  | 
5 | 108VH5.M9 / 108VL1.M5 (antibody, human IgG4 S228P, kappa, V domains shown, Full-length IgG4 (S228P), kappa; also called VH5.M9 VL1.M5) VH: EVQLVQSGAEVKKPGASVKVSCKASGYSFTHHWIHWVRQAPGQGLEWMGMIDASDSETRLSQKFQGRVTMTRDTSTSTVYMELSSLRSEDTAVYYCARLGRYYFDYWGQGTLVTVSS VL: EIVLTQSPATLSLSPGERATLSCRASQSVSSYLAWYQQKPGQAPRLLIYGASNRATGIPARFSGSGSGTDFTLTISSLEPEDFAVYYCGESYGHLYTFGGGTKVEIKR |  |  |  |  | 8.5 | 0.0028 | 330000 | 1.9 | 0.0014 | 760000 |  |  |  |  |  |  | 
6 | 108VH5.M21 / 108VL1.M5 (antibody, human IgG4 S228P, kappa, V domains shown, Full-length IgG4 (S228P), kappa; also called VH5.M21 VL1.M5) VH: EVQLVQSGAEVKKPGASVKVSCKASGYTFTHHWMHWVRQAPGQGLEWMGMIDASDFETRYAQKFQGRVTMTRDTSTSTVYMELSSLRSEDTAVYYCARLGRYYFDYWGQGTLVTVSS VL: EIVLTQSPATLSLSPGERATLSCRASQSVSSYLAWYQQKPGQAPRLLIYGASNRATGIPARFSGSGSGTDFTLTISSLEPEDFAVYYCGESYGHLYTFGGGTKVEIKR | 11.9 | 37400 | 9.2 | 40800 |  |  |  |  |  |  | 51 | 0.008 | 160000 | 6.5 | 0.0032 | 490000 | CCRF-CEM phagocytosis EC50 [3]: 0.32 nM; CCRF-CEM phagocytosis, Phagocytosis (%) [3]: 51.9%
7 | 108VH5.M8 / 108VL1.M5 (antibody, human IgG4 S228P, kappa, V domains shown, Full-length IgG4 (S228P), kappa; also called VH5.M8 VL1.M5) VH: EVQLVQSGAEVKKPGASVKVSCKASGYSFTHHWIHWVRQAPGQGLEWMGMIDASDSETRYAQKFKDRVTMTRDTSTSTVYMELSSLRSEDTAVYYCARLGRYYFDYWGQGTLVTVSS VL: EIVLTQSPATLSLSPGERATLSCRASQSVSSYLAWYQQKPGQAPRLLIYGASNRATGIPARFSGSGSGTDFTLTISSLEPEDFAVYYCGESYGHLYTFGGGTKVEIKR |  |  |  |  | 15 | 0.0044 | 300000 | 3 | 0.0022 | 720000 |  |  |  |  |  |  | 
